# According to PMC10680838:
# Biological target: DcpA (Agrobacterium tumefaciens C58)
# Test: cross-linking
substance,measurement,value
PruR (natural protein),stoichiometry N,1
